Measured values from patent publication US9176064B2, “Bisubstrate fluorescent probes for protein kinase CK2” (University of Tartu, priority 2012, dated 2015).
Where a SMILES comes first, the peptide text is derived from it. [ ]: non-standard residue; d: D form. The star is where a group is joined. X1 = O=C(CCCCCCCn1cnc2c(Br)c(Br)c(Br)c(Br)c21)*

Tests used:
Assay in all cases: Kinase panel residual activity
Type in all cases: biochemical
Settings in all cases: compound at 1 micromolar
[1] = target: T1, EPH-B4 (Homo sapiens, UniProt P54760)
T1 sequence (P54760 16-987): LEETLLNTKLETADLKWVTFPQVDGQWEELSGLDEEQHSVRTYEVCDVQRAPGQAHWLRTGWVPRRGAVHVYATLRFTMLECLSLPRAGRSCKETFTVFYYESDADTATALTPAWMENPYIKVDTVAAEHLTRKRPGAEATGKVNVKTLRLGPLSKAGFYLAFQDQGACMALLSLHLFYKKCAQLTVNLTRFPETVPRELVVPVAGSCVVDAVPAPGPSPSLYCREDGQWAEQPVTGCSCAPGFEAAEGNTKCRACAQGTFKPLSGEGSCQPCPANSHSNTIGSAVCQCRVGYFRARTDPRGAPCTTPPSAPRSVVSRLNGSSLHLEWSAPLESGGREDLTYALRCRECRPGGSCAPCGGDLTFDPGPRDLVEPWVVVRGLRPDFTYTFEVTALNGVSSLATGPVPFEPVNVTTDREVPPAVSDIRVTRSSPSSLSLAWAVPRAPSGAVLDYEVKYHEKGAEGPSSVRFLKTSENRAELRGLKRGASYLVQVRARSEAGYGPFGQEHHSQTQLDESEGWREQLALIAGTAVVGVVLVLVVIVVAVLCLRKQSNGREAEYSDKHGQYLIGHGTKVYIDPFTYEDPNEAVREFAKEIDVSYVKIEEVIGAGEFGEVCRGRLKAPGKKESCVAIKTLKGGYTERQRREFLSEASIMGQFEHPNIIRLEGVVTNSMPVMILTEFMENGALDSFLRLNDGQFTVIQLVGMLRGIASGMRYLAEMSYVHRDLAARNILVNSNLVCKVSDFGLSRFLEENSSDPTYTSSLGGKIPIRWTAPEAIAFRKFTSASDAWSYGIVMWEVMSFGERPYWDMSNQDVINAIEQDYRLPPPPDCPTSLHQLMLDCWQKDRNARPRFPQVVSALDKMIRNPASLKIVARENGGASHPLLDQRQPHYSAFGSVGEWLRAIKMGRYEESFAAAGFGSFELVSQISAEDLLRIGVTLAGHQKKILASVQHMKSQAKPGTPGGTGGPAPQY

[2] = target: T2, TLK1 (Homo sapiens, UniProt Q9UKI8)
T2 sequence (Q9UKI8 1-766): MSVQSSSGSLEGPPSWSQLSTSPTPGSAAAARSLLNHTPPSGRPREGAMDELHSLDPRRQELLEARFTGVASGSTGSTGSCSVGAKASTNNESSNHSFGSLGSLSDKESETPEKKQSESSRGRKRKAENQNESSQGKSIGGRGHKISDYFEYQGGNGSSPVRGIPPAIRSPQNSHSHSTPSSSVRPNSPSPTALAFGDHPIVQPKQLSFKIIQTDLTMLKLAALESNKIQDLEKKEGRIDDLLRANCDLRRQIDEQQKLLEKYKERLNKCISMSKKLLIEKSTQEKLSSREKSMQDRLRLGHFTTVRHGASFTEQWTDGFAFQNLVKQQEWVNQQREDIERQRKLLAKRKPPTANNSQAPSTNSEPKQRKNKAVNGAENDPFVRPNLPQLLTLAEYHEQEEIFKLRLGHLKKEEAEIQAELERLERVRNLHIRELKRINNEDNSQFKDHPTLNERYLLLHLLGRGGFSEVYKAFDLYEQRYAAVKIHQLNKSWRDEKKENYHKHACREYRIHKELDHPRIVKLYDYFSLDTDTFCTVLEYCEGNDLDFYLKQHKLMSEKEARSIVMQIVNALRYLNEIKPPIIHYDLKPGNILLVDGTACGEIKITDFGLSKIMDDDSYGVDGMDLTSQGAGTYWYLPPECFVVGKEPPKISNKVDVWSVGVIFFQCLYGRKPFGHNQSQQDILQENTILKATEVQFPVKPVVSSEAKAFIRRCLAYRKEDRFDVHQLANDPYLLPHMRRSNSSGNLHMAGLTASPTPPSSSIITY

[3] = target: T3, ULK1 (Homo sapiens, UniProt O75385)
T3 sequence (O75385 1-1050): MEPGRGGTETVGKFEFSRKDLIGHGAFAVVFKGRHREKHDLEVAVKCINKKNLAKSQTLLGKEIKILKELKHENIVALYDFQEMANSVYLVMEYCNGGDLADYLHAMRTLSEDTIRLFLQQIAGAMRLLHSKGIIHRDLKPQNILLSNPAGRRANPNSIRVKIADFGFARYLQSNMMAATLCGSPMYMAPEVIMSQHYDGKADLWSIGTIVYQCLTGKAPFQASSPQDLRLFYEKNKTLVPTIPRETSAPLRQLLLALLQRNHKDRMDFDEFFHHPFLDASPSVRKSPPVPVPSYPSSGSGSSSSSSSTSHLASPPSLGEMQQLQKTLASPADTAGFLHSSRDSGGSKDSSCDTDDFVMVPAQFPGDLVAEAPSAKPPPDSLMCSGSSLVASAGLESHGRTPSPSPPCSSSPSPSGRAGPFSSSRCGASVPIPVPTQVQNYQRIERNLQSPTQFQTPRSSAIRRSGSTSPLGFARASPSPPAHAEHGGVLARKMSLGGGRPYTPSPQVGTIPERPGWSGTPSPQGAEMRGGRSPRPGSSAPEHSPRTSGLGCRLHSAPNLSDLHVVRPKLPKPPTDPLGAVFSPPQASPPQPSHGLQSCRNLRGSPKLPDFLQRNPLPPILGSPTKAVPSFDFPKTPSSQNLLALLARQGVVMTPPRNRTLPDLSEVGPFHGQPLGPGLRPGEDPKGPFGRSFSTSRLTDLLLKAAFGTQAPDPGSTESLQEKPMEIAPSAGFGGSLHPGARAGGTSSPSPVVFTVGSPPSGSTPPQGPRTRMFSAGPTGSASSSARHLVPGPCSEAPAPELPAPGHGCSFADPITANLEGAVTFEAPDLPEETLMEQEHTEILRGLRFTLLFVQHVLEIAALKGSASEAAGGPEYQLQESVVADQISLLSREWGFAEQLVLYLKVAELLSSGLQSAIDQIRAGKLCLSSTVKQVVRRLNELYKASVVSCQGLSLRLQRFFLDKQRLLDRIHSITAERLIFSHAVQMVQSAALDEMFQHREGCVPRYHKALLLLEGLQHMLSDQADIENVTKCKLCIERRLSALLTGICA

NCCCC[C@H](NC(=O)[C@H](CC(=O)O)NC(=O)[C@H](CC(=O)O)NC(=O)[C@H](CC(=O)O)NC(=O)[C@H](CC(=O)O)NC(=O)[C@H](CC(=O)O)NC(=O)[C@@H](CC(=O)O)NC(=O)CCCCCCCn1cnc2c(Br)c(Br)c(Br)c(Br)c21)C(=O)O [TBBI-OcA-(D-Asp)-(L-Asp)5-(L-Lys)-OH] (X1-[dD]DDDDDK-OH)
remaining activity at 1 µM [1]: 104% | remaining activity at 1 µM [2]: 107% | remaining activity at 1 µM [3]: 111%
